Two substances from PMC10475850 can be followed below.

For experiment [1], the target named is Csp1 (cysteine-rich helical bundle copper-storage protein). In words: SEC; analytical size exclusion of the purified protein (Figure S8); conditions not given.
Experiment [2] has as its target Recombinant Human EGF (human).
Experiment [3] deals with Recombinant Human TGF-alpha (human). In words: SPR; Biacore X100, multi-cycle kinetics; TGF-α amine-coupled to CM5 chip (100 μg/mL, acetate pH 4.5); binders injected at five concentrations (nanomolar to low micromolar range) 60 s, 60 s dissociation; PBS with 0.05% Tween-20, 25°C, 10 μL/min; global fit. On the technique in general: In SPR one partner is held on a chip, and binding of the other changes the refractive index at the surface.

The target of experiment [4] is Recombinant Human EGF (human). The experiment in a line: SPR; Biacore X100, multi-cycle kinetics; EGF amine-coupled to CM5 chip (100 μg/mL, acetate pH 4.0); binders injected at five concentrations (nanomolar range) 120 s, 180 s dissociation; PBS with 0.05% Tween-20, 25°C, 10 μL/min; global fit.
Experiment [5] concerns the target Recombinant Human HB-EGF (human). The experiment in a line: SPR; Biacore X100, multi-cycle kinetics; HB-EGF amine-coupled to CM5 chip (20 μg/mL, acetate pH 5.0); binders injected at five concentrations (nanomolar range) 180 s, 180 s dissociation; PBS with 0.05% Tween-20, 25°C, 10 μL/min; global fit.

As to “Csp1 (cysteine-rich helical bundle copper-storage protein) (natural protein)”, the stoichiometry N (usually the number of molecules, sites or subunits per partner or assembly) in experiment [1] is 4.

On to “human EGFR domain 3 (d3-WT) (domain or fragment)”, for which, in experiment [2], the IC50 of inhibition of proliferation of A431 cells stimulated with 400 pM EGF (EGF acting on EGFR), d3-WT at 0.032-500 nM, 72 h is 476 nM. In experiment [3], the Kd (commonly the concentration at which binding is half-saturated) stood at 2550 nM; the koff – broadly, the rate constant with which the complex falls apart – is 0.0577 s⁻¹; the kon (usually the second-order rate constant of association) is 38400 M⁻¹ s⁻¹. In experiment [4], the Kd was 56 nM, the koff was 0.0028 s⁻¹ and the kon turned out to be 49700 M⁻¹ s⁻¹. In experiment [5], the Kd came to 370 nM, the koff amounted to 0.0107 s⁻¹ and the kon turned out to be 47200 M⁻¹ s⁻¹.
